Test results: patent US20200197483A1 (MOREHOUSE SCHOOL OF MEDICINE, published 2020)

B1: HIV-1 Nef SMRwt peptide (peptide)
peptide: VGFPVAAVGFPVDYKDDDDK
notes: Synthetic peptide with two SMR motifs and a C-terminal FLAG tag; also called SMRwt (wide-type) peptide; antagonist peptide
B2: HIV-1 Nef SMRmut peptide (peptide)
peptide: AGFPVAAAGFPVDYKDDDDK
notes: Synthetic negative control peptide; the first valine of each VGFPV motif is changed to alanine; also called SMRmut (mutant) peptide; negative control peptide

Experiments:
E. coli DnaK protein = molecular target: T1, E. coli DnaK protein (Escherichia coli, UniProt P0A6Y8 2-638); test: ANTI-FLAG M2 immunoprecipitation from E. coli lysate, Western blot with anti-DnaK antibody
T1 construct: Endogenous protein in E. coli lysate; also called heat shock protein 70 (Hsp70)

Mortalin = molecular target: T2, Mortalin (UniProt P38646 47-679); test: immunoprecipitation from Jurkat lysate, Western blot with anti-mortalin antibody
T2 construct: Endogenous protein pulled down from Jurkat cell lysate (a human T cell line); also called Glucose-regulated protein 75 (GRP75)
T2 sequence (P38646 47-679 limits assumed): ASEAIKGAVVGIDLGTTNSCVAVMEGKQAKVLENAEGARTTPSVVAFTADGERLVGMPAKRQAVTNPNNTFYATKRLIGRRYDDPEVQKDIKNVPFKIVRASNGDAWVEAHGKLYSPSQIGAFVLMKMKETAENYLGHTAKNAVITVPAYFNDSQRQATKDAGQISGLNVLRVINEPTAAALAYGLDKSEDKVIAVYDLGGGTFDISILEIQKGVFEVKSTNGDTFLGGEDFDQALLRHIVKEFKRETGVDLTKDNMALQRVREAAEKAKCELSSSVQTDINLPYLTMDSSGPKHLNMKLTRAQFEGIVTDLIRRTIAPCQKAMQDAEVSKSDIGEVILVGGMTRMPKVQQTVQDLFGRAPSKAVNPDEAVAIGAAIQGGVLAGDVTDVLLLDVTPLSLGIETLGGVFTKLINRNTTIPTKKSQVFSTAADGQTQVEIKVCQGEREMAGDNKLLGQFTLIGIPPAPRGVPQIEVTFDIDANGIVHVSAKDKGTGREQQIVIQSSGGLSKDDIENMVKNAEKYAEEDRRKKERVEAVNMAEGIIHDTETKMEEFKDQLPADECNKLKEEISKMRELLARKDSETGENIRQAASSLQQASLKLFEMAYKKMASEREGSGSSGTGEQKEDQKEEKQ

T1 sequence (P0A6Y8 2-638 limits assumed): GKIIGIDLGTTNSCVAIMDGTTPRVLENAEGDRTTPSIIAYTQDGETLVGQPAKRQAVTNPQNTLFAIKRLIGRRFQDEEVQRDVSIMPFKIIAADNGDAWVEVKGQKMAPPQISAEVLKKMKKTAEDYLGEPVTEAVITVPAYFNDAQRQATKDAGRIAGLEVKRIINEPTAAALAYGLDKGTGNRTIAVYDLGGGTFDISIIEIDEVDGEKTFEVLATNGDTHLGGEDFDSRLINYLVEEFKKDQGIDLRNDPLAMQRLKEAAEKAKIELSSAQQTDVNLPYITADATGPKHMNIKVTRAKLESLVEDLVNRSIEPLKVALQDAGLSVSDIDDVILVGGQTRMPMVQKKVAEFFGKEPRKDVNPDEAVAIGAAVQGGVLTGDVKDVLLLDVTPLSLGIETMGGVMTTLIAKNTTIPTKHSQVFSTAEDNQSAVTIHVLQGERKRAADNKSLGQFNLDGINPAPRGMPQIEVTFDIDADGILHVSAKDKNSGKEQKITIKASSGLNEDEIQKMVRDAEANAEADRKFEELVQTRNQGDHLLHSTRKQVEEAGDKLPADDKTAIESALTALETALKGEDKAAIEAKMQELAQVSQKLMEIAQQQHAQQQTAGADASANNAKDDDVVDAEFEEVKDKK

Binder	binding result (E. coli DnaK protein)	binding result (Mortalin)
B1	binds	binds
B2	no binding (tested: 1 µg peptide with 1 mg E. coli lysate)	no binding
